Source: PMC3763809

Biological target: nucleosome containing the H3(1-132)-QFI chimera (Drosophila | budding yeast), P02299
Assay: ITC

GLRKSTRVKVAPLQYWRNEKIVY (domain or fragment, modifications not checked) [budding yeast CENP-C motif]
Kd: 300 nM
